Data reported in paper PMC10286367.

Legend:
[1] = WB of cytoplasmic and nuclear fractions; conditions: glycan lost; control: Ctrl astrocytes
[2] = WB of total p65, cultured astrocytes; conditions: glycan lost; control: Ctrl astrocytes
WB, cultured astrocytes = conditions: glycan lost; control: Ctrl astrocytes
IP-WB in N2a cells = conditions: glycan lost; control: wild-type p65-HA

B1: NF-κB p65: Ogt cKO (protein)
parent chain: MDDLFPLIFPSEPAQASGPYVEIIEQPKQRGMRFRYKCEGRSAGSIPGERSTDTTKTHPTIKINGYTGPGTVRISLVTKDPPHRPHPHELVGKDCRDGYYEADLCPDRSIHSFQNLGIQCVKKRDLEQAISQRIQTNNNPFHVPIEEQRGDYDLNAVRLCFQVTVRDPAGRPLLLTPVLSHPIFDNRAPNTAELKICRVNRNSGSCLGGDEIFLLCDKVQKEDIEVYFTGPGWEARGSFSQADVHRQVAIVFRTPPYADPSLQAPVRVSMQLRRPSDRELSEPMEFQYLPDTDDRHRIEEKRKRTYETFKSIMKKSPFNGPTEPRPPTRRIAVPTRNSTSVPKPAPQPYTFPASLSTINFDEFSPMLLPSGQISNQALALAPSSAPVLAQTMVPSSAMVPLAQPPAPAPVLTPGPPQSLSAPVPKSTQAGEGTLSEALLHLQFDADEDLGALLGNSTDPGVFTDLASVDNSEFQQLLNQGVSMSHSTAEPMLMEYPEAITRLVTGSQRPPDPAPTPLGTSGLPNGLSGDEDFSSIADMDFSALLSQISS
localisation_or_trafficking [1]: changes | expression_or_secretion [2]: no change | other: p65 phosphorylation (p-p65 level) (WB, cultured astrocytes): increases

B2: NF-κB p65: OE-Ogt (protein)
parent chain: MDDLFPLIFPSEPAQASGPYVEIIEQPKQRGMRFRYKCEGRSAGSIPGERSTDTTKTHPTIKINGYTGPGTVRISLVTKDPPHRPHPHELVGKDCRDGYYEADLCPDRSIHSFQNLGIQCVKKRDLEQAISQRIQTNNNPFHVPIEEQRGDYDLNAVRLCFQVTVRDPAGRPLLLTPVLSHPIFDNRAPNTAELKICRVNRNSGSCLGGDEIFLLCDKVQKEDIEVYFTGPGWEARGSFSQADVHRQVAIVFRTPPYADPSLQAPVRVSMQLRRPSDRELSEPMEFQYLPDTDDRHRIEEKRKRTYETFKSIMKKSPFNGPTEPRPPTRRIAVPTRNSTSVPKPAPQPYTFPASLSTINFDEFSPMLLPSGQISNQALALAPSSAPVLAQTMVPSSAMVPLAQPPAPAPVLTPGPPQSLSAPVPKSTQAGEGTLSEALLHLQFDADEDLGALLGNSTDPGVFTDLASVDNSEFQQLLNQGVSMSHSTAEPMLMEYPEAITRLVTGSQRPPDPAPTPLGTSGLPNGLSGDEDFSSIADMDFSALLSQISS
other: p65 phosphorylation (p-p65 level) (HA IP-WB in N2a cells; glycan gained, control: N2a cells without ectopic Ogt): decreases

B3: NF-κB p65: S370A (protein)
parent chain: MDDLFPLIFPSEPAQASGPYVEIIEQPKQRGMRFRYKCEGRSAGSIPGERSTDTTKTHPTIKINGYTGPGTVRISLVTKDPPHRPHPHELVGKDCRDGYYEADLCPDRSIHSFQNLGIQCVKKRDLEQAISQRIQTNNNPFHVPIEEQRGDYDLNAVRLCFQVTVRDPAGRPLLLTPVLSHPIFDNRAPNTAELKICRVNRNSGSCLGGDEIFLLCDKVQKEDIEVYFTGPGWEARGSFSQADVHRQVAIVFRTPPYADPSLQAPVRVSMQLRRPSDRELSEPMEFQYLPDTDDRHRIEEKRKRTYETFKSIMKKSPFNGPTEPRPPTRRIAVPTRNSTSVPKPAPQPYTFPASLSTINFDEFSPMLLPSGQISNQALALAPSSAPVLAQTMVPSSAMVPLAQPPAPAPVLTPGPPQSLSAPVPKSTQAGEGTLSEALLHLQFDADEDLGALLGNSTDPGVFTDLASVDNSEFQQLLNQGVSMSHSTAEPMLMEYPEAITRLVTGSQRPPDPAPTPLGTSGLPNGLSGDEDFSSIADMDFSALLSQISS
other: p65 phosphorylation (p-p65 level) (IP-WB in N2a cells): no change

B4: NF-κB p65: S384A (protein)
parent chain: MDDLFPLIFPSEPAQASGPYVEIIEQPKQRGMRFRYKCEGRSAGSIPGERSTDTTKTHPTIKINGYTGPGTVRISLVTKDPPHRPHPHELVGKDCRDGYYEADLCPDRSIHSFQNLGIQCVKKRDLEQAISQRIQTNNNPFHVPIEEQRGDYDLNAVRLCFQVTVRDPAGRPLLLTPVLSHPIFDNRAPNTAELKICRVNRNSGSCLGGDEIFLLCDKVQKEDIEVYFTGPGWEARGSFSQADVHRQVAIVFRTPPYADPSLQAPVRVSMQLRRPSDRELSEPMEFQYLPDTDDRHRIEEKRKRTYETFKSIMKKSPFNGPTEPRPPTRRIAVPTRNSTSVPKPAPQPYTFPASLSTINFDEFSPMLLPSGQISNQALALAPSSAPVLAQTMVPSSAMVPLAQPPAPAPVLTPGPPQSLSAPVPKSTQAGEGTLSEALLHLQFDADEDLGALLGNSTDPGVFTDLASVDNSEFQQLLNQGVSMSHSTAEPMLMEYPEAITRLVTGSQRPPDPAPTPLGTSGLPNGLSGDEDFSSIADMDFSALLSQISS
other: p65 phosphorylation (p-p65 level) (IP-WB in N2a cells): increases

B5: NF-κB p65: S374A (protein)
parent chain: MDDLFPLIFPSEPAQASGPYVEIIEQPKQRGMRFRYKCEGRSAGSIPGERSTDTTKTHPTIKINGYTGPGTVRISLVTKDPPHRPHPHELVGKDCRDGYYEADLCPDRSIHSFQNLGIQCVKKRDLEQAISQRIQTNNNPFHVPIEEQRGDYDLNAVRLCFQVTVRDPAGRPLLLTPVLSHPIFDNRAPNTAELKICRVNRNSGSCLGGDEIFLLCDKVQKEDIEVYFTGPGWEARGSFSQADVHRQVAIVFRTPPYADPSLQAPVRVSMQLRRPSDRELSEPMEFQYLPDTDDRHRIEEKRKRTYETFKSIMKKSPFNGPTEPRPPTRRIAVPTRNSTSVPKPAPQPYTFPASLSTINFDEFSPMLLPSGQISNQALALAPSSAPVLAQTMVPSSAMVPLAQPPAPAPVLTPGPPQSLSAPVPKSTQAGEGTLSEALLHLQFDADEDLGALLGNSTDPGVFTDLASVDNSEFQQLLNQGVSMSHSTAEPMLMEYPEAITRLVTGSQRPPDPAPTPLGTSGLPNGLSGDEDFSSIADMDFSALLSQISS
other: p65 phosphorylation (p-p65 level) (IP-WB in N2a cells): no change

B6: NF-κB p65: Ogt KD (protein)
parent chain: MDDLFPLIFPSEPAQASGPYVEIIEQPKQRGMRFRYKCEGRSAGSIPGERSTDTTKTHPTIKINGYTGPGTVRISLVTKDPPHRPHPHELVGKDCRDGYYEADLCPDRSIHSFQNLGIQCVKKRDLEQAISQRIQTNNNPFHVPIEEQRGDYDLNAVRLCFQVTVRDPAGRPLLLTPVLSHPIFDNRAPNTAELKICRVNRNSGSCLGGDEIFLLCDKVQKEDIEVYFTGPGWEARGSFSQADVHRQVAIVFRTPPYADPSLQAPVRVSMQLRRPSDRELSEPMEFQYLPDTDDRHRIEEKRKRTYETFKSIMKKSPFNGPTEPRPPTRRIAVPTRNSTSVPKPAPQPYTFPASLSTINFDEFSPMLLPSGQISNQALALAPSSAPVLAQTMVPSSAMVPLAQPPAPAPVLTPGPPQSLSAPVPKSTQAGEGTLSEALLHLQFDADEDLGALLGNSTDPGVFTDLASVDNSEFQQLLNQGVSMSHSTAEPMLMEYPEAITRLVTGSQRPPDPAPTPLGTSGLPNGLSGDEDFSSIADMDFSALLSQISS
other: p65 phosphorylation (p-p65 level) (HA IP-WB in N2a cells; glycan lost, control: control N2a cells): increases

B7: NF-κB p65: S396A (protein)
parent chain: MDDLFPLIFPSEPAQASGPYVEIIEQPKQRGMRFRYKCEGRSAGSIPGERSTDTTKTHPTIKINGYTGPGTVRISLVTKDPPHRPHPHELVGKDCRDGYYEADLCPDRSIHSFQNLGIQCVKKRDLEQAISQRIQTNNNPFHVPIEEQRGDYDLNAVRLCFQVTVRDPAGRPLLLTPVLSHPIFDNRAPNTAELKICRVNRNSGSCLGGDEIFLLCDKVQKEDIEVYFTGPGWEARGSFSQADVHRQVAIVFRTPPYADPSLQAPVRVSMQLRRPSDRELSEPMEFQYLPDTDDRHRIEEKRKRTYETFKSIMKKSPFNGPTEPRPPTRRIAVPTRNSTSVPKPAPQPYTFPASLSTINFDEFSPMLLPSGQISNQALALAPSSAPVLAQTMVPSSAMVPLAQPPAPAPVLTPGPPQSLSAPVPKSTQAGEGTLSEALLHLQFDADEDLGALLGNSTDPGVFTDLASVDNSEFQQLLNQGVSMSHSTAEPMLMEYPEAITRLVTGSQRPPDPAPTPLGTSGLPNGLSGDEDFSSIADMDFSALLSQISS
other: p65 phosphorylation (p-p65 level) (IP-WB in N2a cells): no change
